Laboratory results: patent publication US20260209386A1 (MYTHIC THERAPEUTICS, published 2026)
Positions count from the first letter of the chain named.

B1: MYT10951 (antibody, V domains shown)
VH: EVQLVESGGGLVQPGGSLRLSCTASHFSLSSYAMGWVRQAPGKGLEWVGFINAGGNTYYANWAKGRFTISRDTSKNTVYLQMNSLRAEDTAVYFCARRYSRASGWYDLWGQGTLVTVSS
VL: EIVMTQSPSTLSASVGDRVIITCQASQSISSYLAWYQQKPGKAPKLLIYAASTLASGVPSRFSGSGSGAEFTLTISSLQPDDFATYYCQSYSYSSGIDYGDVFGQGTKLTVL
notes: IgG
B2: MYT10963 (antibody, V domains shown)
VH: B1 VH with H26G, N52H
VL: B1 VL
notes: IgG
B3: MYT10959 (antibody, V domains shown)
VH: B1 VH with H26G, M34H
VL: B1 VL
notes: IgG
B4: MYT10980 (antibody, V domains shown)
VH: B1 VH with H26G, Y99H
VL: B1 VL
notes: IgG
B5: MYT10970 (antibody, V domains shown)
VH: B1 VH with H26G, Y59H
VL: B1 VL
notes: IgG
B6: MYT10978 (antibody, V domains shown)
VH: B1 VH with H26G, R97H
VL: B1 VL
notes: IgG
B7: MYT10962 (antibody, V domains shown)
VH: B1 VH with H26G, I51H
VL: B1 VL
notes: IgG
B8: MYT10966 (antibody, V domains shown)
VH: B1 VH with H26G, G55H
VL: B1 VL
notes: IgG
B9: MYT10957 (antibody, V domains shown)
VH: B1 VH with H26G, Y32H
VL: B1 VL
notes: IgG
B10: MYT10974 (antibody, V domains shown)
VH: B1 VH with H26G, A63H
VL: B1 VL
notes: IgG
B11: MYT10969 (antibody, V domains shown)
VH: B1 VH with H26G, Y58H
VL: B1 VL
notes: IgG
B12: MYT10939 (antibody, V domains shown)
VH: EVQLVESGGGLVQPGGSLRLSCTASGFSLSNYVMNWVRQAPGKGLEWVGIIDSSGSTYYASWAKGRFTISRDTSKNTVYLQMNSLRAEDTAVYFCARGLYLWGQGTLVTVSS
VL: EIVMTQSPSTLSASVGDRVIITCQSSQSVYNNNLLAWYQQKPGKAPKLLIYYTSNLASGVPSRFSGSGSGAEFTLTISSLQPDDFATYYCHGGYNGNIYAFGQGTKLTVL
notes: IgG
B13: MYT10943 (antibody, V domains shown)
VH: B12 VH
VL: B12 VL with H91Q, N95H
notes: IgG
B14: MYT10942 (antibody, V domains shown)
VH: B12 VH
VL: B12 VL with H91Q, Y94H
notes: IgG
B15: MYT10949 (antibody, V domains shown)
VH: B12 VH
VL: B12 VL with H91Q, T108E, V109I, L110K
notes: IgG
B16: MYT10946 (antibody, V domains shown)
VH: B12 VH
VL: B12 VL with H91Q, I98H
notes: IgG
B17: MYT10944 (antibody, V domains shown)
VH: B12 VH
VL: B12 VL with H91Q, G96H
notes: IgG

Target: T1, Human PTK7/CCK4 Protein, His Tag, Acro Biosystems PT7-H52H3 (human, UniProt Q13308 31-704)
T1 construct: bought protein; also called Human PTK7 Protein, His Tag, Acro Biosystems; not shown: His tag
T1 sequence: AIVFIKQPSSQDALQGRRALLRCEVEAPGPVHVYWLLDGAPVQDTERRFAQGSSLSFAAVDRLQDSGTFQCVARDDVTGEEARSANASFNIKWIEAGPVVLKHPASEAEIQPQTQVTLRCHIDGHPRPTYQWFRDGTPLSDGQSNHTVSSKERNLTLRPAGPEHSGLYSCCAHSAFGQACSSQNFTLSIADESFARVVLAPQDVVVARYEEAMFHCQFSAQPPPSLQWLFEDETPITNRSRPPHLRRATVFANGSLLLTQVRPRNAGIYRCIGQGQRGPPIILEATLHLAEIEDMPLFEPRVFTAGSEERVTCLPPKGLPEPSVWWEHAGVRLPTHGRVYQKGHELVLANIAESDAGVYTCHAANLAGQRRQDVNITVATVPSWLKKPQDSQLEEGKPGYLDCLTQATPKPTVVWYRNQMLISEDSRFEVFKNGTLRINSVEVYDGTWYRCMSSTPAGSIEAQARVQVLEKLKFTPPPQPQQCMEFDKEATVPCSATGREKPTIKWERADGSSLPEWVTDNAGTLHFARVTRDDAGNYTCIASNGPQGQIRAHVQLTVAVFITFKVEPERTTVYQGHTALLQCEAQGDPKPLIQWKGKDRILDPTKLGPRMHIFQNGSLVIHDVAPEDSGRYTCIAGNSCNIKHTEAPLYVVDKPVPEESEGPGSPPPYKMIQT
Experiment: BLI, antibody on anti-human Fc sensor, 50 nM PTK7

Row | Binder | binding result
1 | B1 | binds
2 | B2 | binds
3 | B3 | binds
4 | B4 | binds
5 | B5 | binds
6 | B6 | binds
7 | B7 | binds
8 | B8 | binds
9 | B9 | binds
10 | B10 | binds
11 | B11 | binds
12 | B12 | binds
13 | B13 | binds
14 | B14 | binds
15 | B15 | binds
16 | B16 | binds
17 | B17 | binds
